In US20250296984A1, “THERAPEUTIC AND DIAGNOSTIC AGENTS AND USES THEREOF” (priority 2022, published 2025):
Marks after values point to notes of the source that are not given here.

Biological target: T1, HCMV US28 (strain DB) on CHO-US28-A1 cells (Human cytomegalovirus, UniProt P69332, D170N/D19A)
T1 construct: expressed in transfected cells; host or cells: CHO-K1 (vector pCDH-EF1a-MCS)
Assay: FACS surface binding to CHO-US28-A1 cells
Details: CHO-US28-A1 cells compared with US28 negative control CHO cells
Method: Plasmid construction was performed to create a US28-overexpressing cell line. The US28 sequence, identical to HCMV DB strain (Acc. Number: KT959235; SEQ ID No. 5 of this application), fused to a 6His tag at its C terminal part, was inserted into the pCDH-EF1a-MCS vector (Creative Biolabs, Shirley, NY 11967, USA). The plasmid construct was transfected to CHO-K1 cell line. The cells were collected 48 hours after transfection. The cell line was named as CHO-US28-A1-6His and its protein sequence (SEQ ID NO: 47) is the following:
Flowcytometry was used to analyze cell surface binding by the US28 antibodies. Upon cell harvest, adherent non-infected and US28 overexpressing or HCMV infected cells were washed three times with cell staining buffer (phosphate-buffered saline (PBS (Amresco, Cleveland, 44139, USA) added 0.5% BSA and 0.05% Sodium Azide (NaN3)). The cells were trypisinized and then resuspended in DMEM with 10% FBS to inhibit the action of trypsin. The cells were then pelleted at 400×g for 10 minutes and washed three times in cell staining buffer. Cell viability and cell concentration were measured by tryphan blue viability assay and a cell counter (Countess, Invitrogen, Carlsbad, CA 92008, USA). The cell suspension was adjusted to 1×10^6 cells/mL with ice-cold cell staining buffer. The cells were blocked in 1 ml 10% FBS or 1% BSA in PBS per 1×10^6 cells, vortexed briefly, and incubated for 10-30 minutes to eliminate non-specific staining. The cells were then stained with the respective antibodies and appropriate negative controls.
The primary antibodies used were I) 13-5G6-1D3 (50 μg/ml) as a positive control; II) Monovalent and Bivalent VUN100 ScFvs 1:1 (50 μg/ml); III) test antibodies for the specified subclones (1:5).
The primary antibodies used were I) 13-5G6-1D3 1:50 to 50 μg/ml; and II) Commercial US28 polyclonal antibody (50 μg/ml), III) Monovalent and Bivalent VUN100 ScFvs (50 μg/ml) and for certain experiments, the appropriate isotype controls were included.
In both cases (ECD1 and ECD3), the antibodies were added to the cells, vortexed and incubated on ice for 15 to 30 minutes up to overnight and washed twice with cell staining buffer to remove any unbound antibodies. In addition, the CMV Immediate Early Antigen (IE) Alexa488 Ab, MAB810X, 1:50 was included to verify HCMV infected cells in one of the experiments. Because it binds to an intracellular, HCMV encoded protein, it was added after permeabilizing the cells in 70% ethanol for 30 min on ice.
1:500-1:5000 in cell staining buffer of the appropriate fluorescent-conjugated appropriate secondary antibodies were added and incubated on ice for 15-20 min in the dark. The cells were washed three times to remove any unbound antibodies. The cells were then fixed with 0.5% paraformaldehyde (PFA) for 30 min on ice and resuspended in 200-500 μL cell staining buffer for final flow cytometric analysis using an Accuri C6 flow cytometry system (BD Biosciences, San Jose, CA 95131, USA). Data analyses were performed using FlowJo software v8.8 (Treestar Inc. Ashland, OR 97520, USA).
Background levels were determined using the respective secondary antibodies (anti-mFc-FITC for the subclones, or anti-myc-PE for the VUN100 molecules) with CHO cells and CHO-US28 cells. Given that US28 is expressed on the cell surface, the cells were non-permeabilised for these experiments.

B1: 13-5G6-1D3 clone: antibody from hybridoma clone US28-13-5G6-1D3 (antibody)
heavy: EVKLVESGGGLVQPGGSLRLACATSGFTFTDYYMSWVRQPPGKALEWLGFIRSKANGYTTEYSASVKGRFTISRDNSQSILYLQMNTLRSEDSATYYCARDERRTAWLAYWGQGTLVTVSAAKTTPPSVYPLAPGSAAQTNSMVTLGCLVKGYFPEPVTVTWNSGSLSSGVHTFPAVLQSDLYTLSSSVTVPSSTWPSETVTCNVAHPASSTKVDKKIVPRDCGCKPCICTVPEVSSVFIFPPKPKDVLTITLTPKVTCVVVDISKDDPEVQFSWFVDDVEVHTAQTQPREEQFNSTFRSVSELPIMHQDWLNGKEFKCRVNSAAFPAPIEKTISKTKGRPKAPQVYTIPPPKEQMAKDKVSLTCMITDFFPEDITVEWQWNGQPAENYKNTQPIMDTDGSYFIYSKLNVQKSNWEAGNTFTCSVLHEGLHNHHTEKSLSHSPGK
light: DVLMTQTPLSLPVSLGDQASISCRSSQSIVHSNGNTYLDWYLQKPGQSPKLLIYKVSNRFSGVPDRFSGSGSGTDFTLKISRVEAEDLGVYYCFQGSHVPTWTFGGGTKLEIKRADAAPTVSIFPPSSEQLTSGGASVVCFLNNFYPKDINVKWKIDGSERQNGVLNSWTDQDSKDSTYSMSSTLTLTKDEYERHNSYTCEATHKTSTSPIVKSFNRNEC
Binding Specificity (ratio of surface binding): 15.2*
